{"source": "patent US12214052", "about": "(HOSPITAL FOR SICK CHILDREN, dated 2025)", "binders": {"B1": {"name": "1210 Fab (Fab, V domains shown)", "VH": "QVQLVESGGGVVQPGRSLRLSCAASGFTFSNYGMHWVRQAPGKGLEWVAVIWYDGSKKYYADSVKGRFTISRDNSKNTLYLQMNSLRAEDTAVYYCARVRDSSDYYGDAFDIWGQGTMVTVSS", "VL": "DIQMTQSPSTLSASVGDRVTITCRASQSISSWLAWYQQKPGKAPKLLIYKASNLESGVPLRFSGSGSGTEFTLTISSLQPDDFATYYCQQYNNYWTFGQGTKVEIK"}, "B2": {"name": "1210_GL Fab (Fab, V domains shown)", "VH": "QVQLVESGGGVVQPGRSLRLSCAASGFTFSSYGMHWVRQAPGKGLEWVAVIWYDGSNKYYADSVKGRFTISRDNSKNTLYLQMNSLRAEDTAVYYCARVRDSSDYYGDAFDIWGQGTMVTVSS", "VL": "not shown"}, "B3": {"name": "1210 H.D100Ymut_K.N92Ymut (1210_YY) Fab (Fab, V domains shown)", "VH": "QVQLVESGGGVVQPGRSLRLSCAASGFTFSNYGMHWVRQAPGKGLEWVAVIWYDGSKKYYADSVKGRFTISRDNSKNTLYLQMNSLRAEDTAVYYCARVRDSSYYYGDAFDIWGQGTMVTVSS", "VL": "DIQMTQSPSTLSASVGDRVTITCRASQSISSWLAWYQQKPGKAPKLLIYKASNLESGVPLRFSGSGSGTEFTLTISSLQPDDFATYYCQQYYNYWTFGQGTKVEIK"}, "B4": {"name": "1210_H.K56_Nrev_K.N93_Srev (1210_NS) Fab (Fab, V domains shown)", "VH": "QVQLVESGGGVVQPGRSLRLSCAASGFTFSNYGMHWVRQAPGKGLEWVAVIWYDGSNKYYADSVKGRFTISRDNSKNTLYLQMNSLRAEDTAVYYCARVRDSSDYYGDAFDIWGQGTMVTVSS", "VL": "DIQMTQSPSTLSASVGDRVTITCRASQSISSWLAWYQQKPGKAPKLLIYKASNLESGVPLRFSGSGSGTEFTLTISSLQPDDFATYYCQQYNSYWTFGQGTKVEIK"}}}
{"molecular_target": "T1, NANP 5-mer peptide (NANP5) (Plasmodium falciparum)", "T1 peptide": "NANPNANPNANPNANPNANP", "assay": "ITC", "description": "Calorimetric titration experiments were performed with an Auto-iTC200 instrument (Malvern) at 25° C. Proteins were dialyzed against 20 mM Tris pH 8.0 and 150 mM sodium chloride overnight at 4° C. […] Experiments were performed at least three times and the mean and standard error of the mean were reported (FIG. 30). The experimental data were analyzed according to a 1:1 binding model by means of Origin 7.0."}
{"binder": "B1", "binding stoichiometry": "~2"}
{"binder": "B2", "binding stoichiometry": "~2"}
{"binder": "B3", "binding stoichiometry": "~2"}
{"binder": "B4", "binding stoichiometry": "~2"}
